Laboratory results reported in the RNAGym collection of RNA variant scans (doi:10.7554/elife.80360).

B1: Hairpin Ribozyme (parent)
chain: GUCCUCUUUCACGUGCGCGUGAAAGAGAGAAGUGAACCAGAGAAACACACGUUGUGGUAUAUUACCUGGUA

Variants of: B1
Test: self-cleavage, relative activity (ratio to wild type); higher = more cleavage; co-transcriptional

First: G13A A30G
Second: C12G A23C
The self-cleavage of the first is lower: 0.104 for the first, 0.511 for the second.

First: C12G A23G
Second: C12G A23U
The self-cleavage of the first is higher: 0.853 for the first, 0.753 for the second.

Going from G13A A22C to G13A A22G, the self-cleavage rises from 0.607 to 0.676.

Going from C12G A44U to C12G A44G, the self-cleavage rises from 0.147 to 0.156.

Going from G13U A71U to C12G G21C, the self-cleavage falls from 0.684 to 0.47.

Going from G13A G40U to C12A G69A, the self-cleavage rises from 0.129 to 0.289.

Going from C12U A39U to C12U A39C, the self-cleavage falls from 0.45 to 0.407.

Going from C12U A45U to C12U A45G, the self-cleavage falls from 0.163 to 0.162.

Going from G13A A41G to G13A A41U, the self-cleavage rises from 0.777 to 0.964.

Compared with C12U A31C, C12G A39G is higher in self-cleavage: 0.204 for the first, 0.29 for the second.

Going from G13C A26U to G13C C37G, the self-cleavage falls from 0.406 to 0.183.

Going from C12U A24U to G13U C18G, the self-cleavage falls from 0.802 to 0.722.

Compared with G13C A45C, G13C A45U is lower in self-cleavage: 0.145 for the first, 0.0506 for the second.

Compared with G13C A45G, G13C A24U is higher in self-cleavage: 0.178 for the first, 0.735 for the second.

Compared with C12U U62C, G13C A23C is higher in self-cleavage: 0.27 for the first, 0.364 for the second.

Going from G13C A23U to G13C A23G, the self-cleavage falls from 0.491 to 0.373.

First: C12G C46G
Second: C12G C46A
The self-cleavage of the first is lower: 0.17 for the first, 0.191 for the second.

First: G13U A39G
Second: G13A U60A
The self-cleavage of the first is lower: 0.273 for the first, 0.714 for the second.

Going from G13A U60G to G13U A23C, the self-cleavage rises from 0.374 to 0.557.

Going from C12U G54U to G13C A30U, the self-cleavage falls from 0.58 to 0.14.

First: G13C G40A
Second: G13C G40C
The self-cleavage of the first is higher: 0.299 for the first, 0.11 for the second.

Compared with C12A A64U, C12G G68A is higher in self-cleavage: 0.176 for the first, 0.233 for the second.

First: C12G G68C
Second: C12A A36C
The self-cleavage of the first is lower: 0.144 for the first, 0.523 for the second.

First: C12A C46G
Second: G13C A59G
The self-cleavage of the first is higher: 0.161 for the first, 0.13 for the second.

First: C12G A59U
Second: C12G C16A
The self-cleavage of the first is lower: 0.134 for the first, 0.84 for the second.

Going from C12G C16G to G13C U60G, the self-cleavage falls from 0.806 to 0.479.

First: C12A U70C
Second: C12A U70G
The self-cleavage of the first is higher: 0.722 for the first, 0.673 for the second.

Going from G13U C46A to G13C G29U, the self-cleavage falls from 0.193 to 0.0913.

First: G13C A47G
Second: G13C A47U
The self-cleavage of the first is higher: 0.21 for the first, 0.109 for the second.

First: G13C A47C
Second: A11U U52A
The self-cleavage of the first is lower: 0.205 for the first, 0.85 for the second.

Going from A11U U52C to C12A G51C, the self-cleavage falls from 0.891 to 0.78.

First: C12A G51U
Second: G13A U53G
The self-cleavage of the first is higher: 0.933 for the first, 0.597 for the second.

Going from C12G G34C to C12G A45C, the self-cleavage falls from 1.15 to 0.0684.

Compared with G13A A23C, G13A G27C is lower in self-cleavage: 0.571 for the first, 0.217 for the second.

First: G13A G27A
Second: C12G U52G
The self-cleavage of the first is lower: 0.462 for the first, 0.718 for the second.

Going from G13A C46U to C12G A47C, the self-cleavage rises from 0.221 to 0.417.

First: G13C A35U
Second: G13C A35G
The self-cleavage of the first is lower: 0.552 for the first, 0.801 for the second.

Compared with G13U C16G, C12G A28G is higher in self-cleavage: 0.655 for the first, 0.889 for the second.

Going from A11U U55A to C12U G29A, the self-cleavage rises from 0.154 to 0.164.

Going from C12U G68C to G13C A31C, the self-cleavage rises from 0.191 to 0.227.

First: G13C A31G
Second: G13A U67G
The self-cleavage of the first is higher: 0.515 for the first, 0.18 for the second.

First: C12A A35U
Second: C12G G57C
The self-cleavage of the first is higher: 0.635 for the first, 0.165 for the second.

Compared with C12A A22G, G13U A36C is lower in self-cleavage: 0.692 for the first, 0.537 for the second.

Going from C12G C65G to C12G C65U, the self-cleavage rises from 0.174 to 0.28.

Compared with G13C G57U, C12G G15A is higher in self-cleavage: 0.164 for the first, 0.881 for the second.

Compared with G13A A39G, C12A U52G is higher in self-cleavage: 0.279 for the first, 0.757 for the second.

Compared with G13U A61U, G13A C38G is lower in self-cleavage: 0.181 for the first, 0.0904 for the second.

First: G13A C38A
Second: C12U A43U
The self-cleavage of the first is lower: 0.154 for the first, 0.22 for the second.

Compared with C12U A43G, G13A U20C is higher in self-cleavage: 0.0708 for the first, 0.902 for the second.

Going from C12G C38U to C12U G34U, the self-cleavage rises from 0.392 to 1.18.

Going from G13C G56A to G13U A59U, the self-cleavage rises from 0.137 to 0.181.

Going from G13U A59C to A11U U62A, the self-cleavage falls from 0.161 to 0.148.

First: C12G U67C
Second: C12U C48U
The self-cleavage of the first is higher: 0.233 for the first, 0.126 for the second.

First: G13C A44G
Second: G13C A61G
The self-cleavage of the first is lower: 0.127 for the first, 0.164 for the second.

Going from G13C U63C to G13C U63G, the self-cleavage rises from 0.111 to 0.164.

Going from C12U G42C to C12U G19U, the self-cleavage rises from 0.265 to 0.954.

Compared with C12A C37G, C12A C37A is higher in self-cleavage: 0.259 for the first, 0.27 for the second.

First: G13A G68A
Second: C12U G27C
The self-cleavage of the first is higher: 0.275 for the first, 0.15 for the second.

Compared with C12G G69A, C12G G69U is lower in self-cleavage: 0.284 for the first, 0.259 for the second.

Going from G13C A28C to A11U U60A, the self-cleavage rises from 0.343 to 0.708.

First: A11U U60G
Second: G13A A35U
The self-cleavage of the first is lower: 0.509 for the first, 0.78 for the second.

First: G13A A35G
Second: G13A G17A
The self-cleavage of the first is lower: 0.732 for the first, 0.747 for the second.

Compared with G13A G17C, C12A C66U is lower in self-cleavage: 0.507 for the first, 0.418 for the second.

First: G13A C65G
Second: C12U C38G
The self-cleavage of the first is higher: 0.238 for the first, 0.235 for the second.

Going from G13A G34C to C12G A30U, the self-cleavage falls from 1.33 to 0.147.

Compared with C12G A30G, C12G A30C is lower in self-cleavage: 0.247 for the first, 0.0578 for the second.

Going from G13A C48G to G13A C48U, the self-cleavage rises from 0.118 to 0.22.

Going from G13A C48A to C12A A45C, the self-cleavage falls from 0.144 to 0.137.

First: C12U U63G
Second: C12U U55A
The self-cleavage of the first is lower: 0.162 for the first, 0.191 for the second.

Going from C12U C16U to C12A C48A, the self-cleavage falls from 0.916 to 0.162.

First: C12A C48G
Second: C12U A22U
The self-cleavage of the first is lower: 0.137 for the first, 0.759 for the second.

First: C12U A22G
Second: C12A G34A
The self-cleavage of the first is lower: 0.748 for the first, 1.21 for the second.

First: C12G G51C
Second: C12G G51U
The self-cleavage of the first is higher: 0.753 for the first, 0.663 for the second.

Going from C12G G51A to C12A U55C, the self-cleavage falls from 0.965 to 0.208.

First: C12G G27A
Second: C12G G27U
The self-cleavage of the first is higher: 0.29 for the first, 0.261 for the second.

First: G13A A44G
Second: C12U A35G
The self-cleavage of the first is lower: 0.125 for the first, 0.938 for the second.

Going from C12U A35C to G13A G56C, the self-cleavage falls from 0.975 to 0.119.

Going from C12U U67C to G13C U70C, the self-cleavage rises from 0.237 to 0.716.

First: G13C U70A
Second: C12G A41G
The self-cleavage of the first is lower: 0.475 for the first, 0.573 for the second.

Compared with C12U A41G, G13C C38U is lower in self-cleavage: 0.676 for the first, 0.384 for the second.

Going from G13C C38A to G13C C38G, the self-cleavage falls from 0.2 to 0.179.

Going from C12A A24U to C12A U62C, the self-cleavage falls from 0.584 to 0.0739.

Going from C12A to C12U, the self-cleavage rises from 0.805 to 0.887.

In the case of C12G, the self-cleavage is reported as 0.827.
